The nature of the data set: label from the status in PepcDB records.
Consider “MVTSSSMRRCRGALSLSFWIFLVLRSVLSRPVFGAAAGPAVQSARQCSASRGTGESDPPPFQPTLRLFPPSRRRRSYCRAMTPSRPSPDFPDGGFVQVRGARQHNLKDISVKVPRDALVVFTGVSGSGKSSLAFGTLYAEAQRRYLESVSPYARRLFNQAGVPDVDAIDGLPPAVALQQARGTPTARSSVGSVTTLSNLLRMLYSRAGDYPPGQGIVYAEGFSPNTPEGACPECHGLGRVYTVTEDSMVPDPSLTIRERAVAAWPQAWGGQNQRDILVTLGIDVDVPWRELPEETRHWILFTDEQPVVPVYPGLTPAETQRALKKKMEPSYMGTFSSARRHVLHTFANTESASMKKRVQGYMISEECPLCHGKRLRQEALNVTFAGLDITELSRLPLARVSELLRPYAEEREPGHAERVKNRPEQAIALQRMAADLVKRLDVLLHLGLGYLGLDRSTPTLSPGELQRLRLATQLYSNLFGVVYVLDEPSAGLHPADTEALLSALENLKRGGNSLFVVEHDLDVIRRADWLVDVGPEAGEKGGEILYSGPPEGLKHVPESQTGQYLFADRHTEPHTPREPAGWLELNGVTRNNLDNLDVRFPLGVMTSVTGVSGSGKSTLVSQALVDALAAHFGQPVNPDPEDDEDPADHTAGSARLGGDLAQITRLVRVDQKPIGRTPRSNMATYTGLFDQVRKLFAATPLAKKRGYNAGRFSFNVKGGRCEHCQGEGWVMVELLFLPSVYAPCPVCHGTRYNAETLEVEYRGKNIADVLALTVDEAHDFFADESAIFRALDTLREVGLGYLRLGQPATELSGGEAQRIKLATELQRSGRGGTVYVLDEPTTGLHPADVERLQRQLVKLVDAGNTVIAVEHKMQVVAASDWVLDIGPGAGEDGGRLVAQGTPAEVAQAAGSVTAPYLRAALR”, for which the protein production entry is “failed”. The result for “MSLRAELNQGLIDFLKASPTPFHATASLARRLEAAGYRRLDERDAWHTETGGRYYVTRNDSSLIAIRLGRRSPLESGFRLVGAHTDSPCLRVKPNPEIARNGFLQLGVEVYGGALFAPWFDRDLSLAGRVTFRANGKLESRLVDFRKAIAVIPNLAIHLNRAANEGWPINAQNELPPIIAQLAPGEAADFRLLLDEQLLREHGITADVVLDYELSFYDTQSAAVVGLNDEFIAGARLDNLLSCHAGLEALLNAEGDENCILVCTDHEEVGSCSHCGADGPFLEQVLRRLLPEGDAFSRAIQRSLLVSADNAHGVHPNYADRHDANHGPALNGGPVIKINSNQRYATNSETAGFFRHLCQDSEVPVQSFVTRSDMGCGSTIGPITASQVGVRTVDIGLPTFAMHSIRELAGSHDLAHLVKVLGAFYASSELEGHHHHHH” reads “not failed”; that for “MDKKPLNTLISATGLWMSRTGTIHKIKHHEVSRSKIYIEMACGDHLVVNNSRSSRTARALRHHKYRKTCKRCRVSDEDLNKFLTKANEDQTSVKVKVVSAPTRTKKAMPKSVARAPKPLENTEAAQAQPSGSKFSPAIPVSTQESVSVPASVSTSISSISTGATASALVKGNTNPITSMSAPVQASAPALTKSQTDRLEVLLNPKDEISLNSGKPFRELESELLSRRKKDLQQIYAEERENYLGKLEREITRFFVDRGFLEIKSPILIPLEYIERMGIDNDTELSKQIFRVDKNFCLRPMLAPNLYNYLRKLDRALPDPIKIFEIGPCYRKESDGKEHLEEFTMLNFCQMGSGCTRENLESIITDFLNHLGIDFKIVGDSCMVYGDTLDVMHGDLELSSAVVGPIPLDREWGIDKPWIGAGFGLERLLKVKHDFKNIKRAARSESYYNGISTNL”, “not failed”.

As for “MEPRVGNKFRLGRKIGGGSFGEIYLGTNIQTNEEVAIKLENVKTKHPQLLYESKLYKVLQGGTGVPNVKWYGVEGDYNVLVIDLLGPSLEDLFNFCSRKLSLKTVLMLADQMINRIEFVHQKSFLHRDIKPDNFLMGLGRRANQVYVIDFGLAKKYRDSNHQHIPYRENKNLTGTARYASMNTHLGIEQSRRDDLESLGFVLMYFLKGSLPWQGLKAGNKKQKYEKISEKKVSTSIEALCRGYPSEFASYFHYCRSLRFDDKPDYAYLKRLFRDLFIREGFQFDYVFDWTILKYQQSQISTPPPRHHGPVVGPSSALPPAITSAERPSGGDEARPSGWSSGIPRRNSGQIFNSGSLAKQKAPVSSDPAISKDVVLSSSSFLRATGSSRRAAVSSSREAAVLGTDSEPSNPQIVEAGSGSNSKIPVSRNSPIVSSEINKLSSPSRATTSVMKNYEANLKGIESLHF”, the protein production entry is recorded as “not failed”. Under “MSLEKQKGLAIITGASQGIGAVIAAGLATDGYRVVLIARSKQNLEKVHDEIMRSNKHVQEPIVLPLDITDCTKADTEIKDIHQKYGAVDILVNAAAMFMDGSLSEPVDNFRKIMEINVIAQYGILKTVTEIMKVQKNGYIFNVASRAAKYGFADGGIYGSTKFALLGLAESLYRELAPLGIRVTTLCPGWVNTDMAKKAGTPFKDEEMIQPDDLLNTIRCLLNLSENVCIKDIVFEMKKSIIEGHHHHHH” stands “not failed”; under “MQKFIRDFTLPAAFAGFVTFLIGISVSSVLVIQAAQILGANTPQITSWFWALGIGIGLSGLILSWKFKYPVATSWSTAGLALIIATGSGYSLHEAIGAFLLCGLLTALLGFFGVFQKALAYIPQSLTSAMLAGVLLKFGIAIFGNMQDHWQFIISLLAVYIVSKRLWPRYCIVITVIAGVMICPFFMEFHLPTLHWELAKPEWITPHFTGSAILGLALPLFVINMASQYLPGIAMIKSYGYNPNVNQLIGWTGATQTLLAPFGCYTVNIAAISAAVSLDDQVHPDPAKRYIAGISCGFFYILMGLFAATLTSLLMSFPSLFIVALAGIALFGTISHNIAIAFQEPTDREAALLTFLCSASGIQFFGIGSAFWGLIVGVIVSMVLKTKFKKS”, “failed”; under “MHSATIIIGIVCGWIFILTTVQFLYLLIIKRDLQPTGWCSFMEKDYLGISSTVLVSLLFGLALVLVNSWFNQPTVEEVVPRSTYLMVMIALFFIDTVAFIFMQLYFIYDRRQFSNCILSLAFLSCLIYFIKTVIIIQQIIEGRLTSSVVQNDIAIYYLFRQMSLCILIFLALVNKVSENTKQRNLFSKKMTLCISLFFVVGGPIVAHILSSHYESYNLHIAELTNENDQVVWKASYVTIMIFMWLTLLSVNLYFNGLRCDIWNGVTVIAFCAVLYNVSLLFMSRYSVSIWYISRTIEVVSKLTVMVIFMCHIFSALRVTKDIAHRDSLTNIFNRNYFFNELTVQSASAKKTPYCVMIMDIDHFKKVNDTWGHPVGDQVIKTVVSIIGKSIRPDDLFARVGGEEFGVLLTDIDTERAKALAERIRENVERLTGDNPEYAIPQKVTISIGAVVTQKNELNPKEIYQLADNALYEAKETGRNKVVVKEAEILINRKDDE”, “failed”. On to “ASATETNTAPSADTQAPKPVNTVTSDVDCSVSAAWGLYKFNQKSNFSAEFEMPESVKAGTGFDALIKIKDISVSNDNLSGYKNAKLTKSSIRINVGKNVKLDGNQPGLSLSNGVLSINDHLKASLEGNSLRISAAPITVRLQALTEGTLTFIPEKTILTNTASVDGYTANTTCTTNADKPFATVKVDPADGLTITAPESASIKQDVQITATVPEKLNEKMDGKVQFFVNHIAAGDPVPVTEDNKASTSIIFDTSGSKTITARFIDAEGYNPAPDGETIIPVVTELDTKKPEDTDSYTGLINGSATSLLKPAKVMPGEKVSVSASLLPNKAPIRVYEIGINAPEDVKYIDGTGKTNYSSKLATTGSVFSSPGSGYYDPEWKNESKKPNESYRGFHSDTSYSVVDTSPQTVSAEFEIPKTLAPGIYMFQMGVYKYSNSLKDLVSIPETAFEIAGPDLPALPERKIKPQPEETPEVSDGSSTAKLVKSP”, for which the protein production result is “not failed”.

Take “DEKGNIVDGDQIMYICSKHLKSEGRLKDDTVVSTVMSNLGFYKALEKEGIKSVQTAVGDRYVVEAMKKDGYNVGGEQSGHLIFLDYNTTGDGLLSAIMLMNTLKATGKPLSELAAEMQKF”: the protein production entry was “failed”. The result for “MERYTKKNERFKAEEGKGSKKSRTFLTERERRALFNDRFFDLKNLIPNPTKGGEASIVQDGIVYINELQRLVSELKYLVEKKKCGARHNNIEVDNKNTIYGTSKIEHPFSKNKNTFNCLIRTLRFVHHF” reads “failed”; that for “SAATMKKAAAEDVNVTFEDQQKINKFARNTSRITELKEEIEVKKKQLQNLEDACDDIMLADDDCLMIPYQIGDVFISHSQEETQEMLEEAKKNLQEEIDALESRVESIQRVLADLKVQLYAKFGSNINLEADES”, “failed”; that for “MNIQIKKRFLANLLLFSLFCLKAETLSEDHQILLSSDAFHRGDFAAAQKGYMNLYKQTNKVVYAKEAAISAASLGDIKTAMHLAMLYQKITNNRNDVSINKILVDGYAQMGQIDKAIELLHKIRKEEKTIATDNVLGTLYLTQKRLDKAFPLLNKFYNQVHDEDSLEKLITIYFLQNRKKEGLDLLQSHIDRYGCSEQLCQKALNTFTQFNELDLAKTTFARLYEKNPIVQNAQFYIGVLILLKEFDKAQKIAELFPFDRRLLLDLYTAQKKFDQASKQASLIYQEKKDPKFLGLEAIYHYESLSANKKKLTKEEMLPIIQKLEQATKERQAWLAKTKDKEDAQDAFFYNFLGYSLIDYDMDIKRGMDFVRKALALDSGSVLYLDSLAWGYYKLGNCLEAKKIFSSIAKESIQAEPELKEHNKIIQECKK”, “failed”. On to “MSTRRSAFLRGLWAATPFSLVIAPFGLLFGVVGTEAGLDIVEVMGFSIIVIAGAAQFAAVQMMADHAPTLIILATSLAVNLRMAMYSASLTPHLGPAPAGLRALIAYCLVDQTYTASMIEFDRAPQQSLGEKIAFFFGTVLPVCPLWYGSTYVGARLGTKIPPEFALDFAVPITFLAMIAPLLRTPAHIAAAGVSVALSLVLAFMPYNSGLLVAAVAAMVTGAQVEAWTERRRAA”, for which the protein production entry is “failed”. The result for “MDVGESNERVKDDSALQASPRSPLSSIDLAIDGAMNASIEQLYHNVCEMESSDDQSPSRASFISYGAESRIDLELRHLVGDVGEEGESKKEIILEKKEESNGEGSLSQKKPLSNGKKVAKTSPNNPKMPGSRISSRKSPDLGKVSVDEESPELGVVLLKQARELVSSGENLNKALDLALRAVKVFEKCGEGEKQLGLNLVMSLHILAAIYAGLGRYNDAVPVLERSIEIPMIEDGEDHALAKFAGCMQLGDMYGLMGQVENSIMLYTAGLEIQRQVLGESDARVGETCRYLAEAHVQAMQFEEASRLCQMALDIHKENGAAATASIEEAADRKLMGLICDAKGDYEVALEHYVLASMAMSSQNHREDVAAVDCSIGDAYMSLARFDEAIFAYQKALAVFKQGKGETHSSVALVYVRLADLYNKIGKTRDSKSYCENALKIYLKPTPGTPMEEVATGFIEISAIYQSMNELDQALKLLRRALKIYANAPGQQNTIAGIEAQMGVVTYMMGNYSESYDIFKSAISKFRNSGEKKTALFGIALNQMGLACVQRYAINEAADLFEEAKTILEKECGPYHPDTLAVYSNLAGTYDAMGRLDDAIEILEYVVGTREEKLGTANPEVEDEKQRLAALLKEAGRGRSKRNRALLTLLDNNPEIANGQRPVY” reads “failed”. For the sequence “MPGIKVHPNESFDEAYRKFKKQVDRNLVVTEVRARRFFEPMTEIRKKQKISARKKMLKRLYMLRRYESRLLEHHHHHH”, the protein production entry is “failed”. With “MMEDRSLNSHGMPSRRGLEPLEWGATGLTVVLSVAAAATQQAILTAIAPLPLSLAVGLNWVSRKKLDDQFQVFRQQQEAKIAELVASQGQQQSELASLNLALAQVRDRLEDVQKQVMQLNQGAQDLHDYTRILDTEQKQIEEVLDCLREIEKNTQVIQVNPSHAKAYYNRGLTHQRLGDAEAAILDYTEAIRLNDTYAKAYHNRGVARSTLGDRKGAVEDLRTAAKLFFEQGDISSYQRARDLAKRIHEVGSIEQDNQEGTIKEVPLEILFS”, the protein production entry was “failed”.

(Values after a protein production outcome set (Wang et al. 2014).)
